Experimental data reported in PMC5542437, “Assembly and stoichiometry of the core structure of the bacterial flagellar type III export gate complex” (PLoS Biology, 2017).
Numbering of substitutions follows the chain as printed. Numbers in names are those of the source.

B1: His-FliP(F137A) (natural protein)
chain: QLPGLISQPLAGGGQSWSLSVQTLVFITSLTFLPAILLMMTSFTRIIIVFGLLRNALGTPSAPPNQVLLGLALFLTFFIMSPVIDKIYVDAYQPFSEQKISMQEALDKGAQPLRAAMLRQTREADLALFARLANSGPLQGPEAVPMRILLPAYVTSELKTAFQIGFTIFIPFLIIDLVIASVLMALGMMMVPPATIALPFKLMLFVLVDGWQLLMGSLAQSFYS
notes: FliP, Salmonella enterica; mature form; signal peptide (Met-1 to Gln-22) cleaved; His tag inserted between Gln-22 and Leu-23; source: Salmonella SJW1368, co-expressed with FliO, DDM-solubilised membranes; purified (Ni-NTA, SEC); not shown: His6 (LHHHHHH), internal (after residue 22), kept
B2: His-FliP(E178A) (natural protein)
chain: B1 chain with A116F, E157A
notes: as for B1
B3: His-FliP(F150A) (natural protein)
chain: B1 chain with A116F, F129A
notes: FliP, Salmonella enterica; mature form; signal peptide (Met-1 to Gln-22) cleaved; His tag inserted between Gln-22 and Leu-23; also called His-FliP(F1507A) [sic]; source: Salmonella SJW1368, co-expressed with FliO, DDM-solubilised membranes; purified (Ni-NTA, SEC); not shown: His6 (LHHHHHH), internal (after residue 22), kept
B4: FlhB (natural protein)
chain: MAEESDDDKTEAPTPHRLEKAREEGQIPRSRELTSLLILLVGVCIIWFGGESLARQLAGMLSAGLHFDHRMVNDPNLILGQIILLIKAAMMALLPLIAGVVLVALISPVMLGGLIFSGKSLQPKFSKLNPLPGIKRMFSAQTGAELLKAVLKSTLVGCVTGFYLWHHWPQMMRLMAESPIVAMGNALDLVGLCALLVVLGVIPMVGFDVFFQIFSHLKKLRMSRQDIRDEFKESEGDPHVKGKIRQMQRAAAQRRMMEDVPKADVIVTNPTHYSVALQYDENKMSAPKVVAKGAGLIALRIREIGAEHRVPTLEAPPLARALYRHAEIGQQIPGQLYAAVAEVLAWVWQLKRWRLAGGQRPPQPENLPVPEALDFMNEKNTDG
notes: FlhB, Salmonella enterica, transmembrane export gate protein; its C-terminal cytoplasmic domain undergoes autocleavage between Asp-269 and Pro270 as printed; source: Salmonella SJW1368, pTrc99A-based plasmid, in DDM- or LMNG-solubilised membranes; co-purified
B5: Tm-FliPP (periplasmic domain of FliP of Thermotoga maritima) (domain or fragment)
chain: YNNAITPYLNKETGYQEMFQRVNTRIREFMINELKNHHNEDNVFMLAKNSGIEIAKIEEAPNAVLIPAFVLGELEVAFK
notes: FliP of Thermotoga maritima (printed 'T. maritia'), periplasmic domain between TM-2 and TM-3; the atomic model holds Thr-122 to Lys-188; the N-terminal 13 residues of the construct are invisible; also called FliPP of T. maritia; Tm-FliPP tetramer; source: expression and purification described previously [37]
B6: FliR-FLAG (natural protein)
chain: MIQVTSEQWLYWLHLYFWPLLRVLALISTAPILSERAIPKRVKLGLGIMITLVIAPSLPANDTPLFSIAALWLAMQQILIGIALGFTMQFAFAAVRTAGEFIGLQMGLSFATFVDPGSHLNMPVLARIMDMLAMLLFLTFNGHLWLISLLVDTFHTLPIGSNPVNSNAFMALARAGGLIFLNGLMLALPVITLLLTLNLALGLLNRMAPQLSIFVIGFPLTLTVGIMLMAALMPLIAPFCEHLFSEIFNLLADIVSEMPINNNP
notes: FliR, Salmonella enterica, transmembrane export gate protein; also called FLAG-FliR (as printed in the methods); source: Salmonella SJW1368, pTrc99A-based plasmid, in DDM- or LMNG-solubilised membranes; co-purified (Ni-NTA, anti-FLAG gel, SEC)
B7: FliF (natural protein)
chain: MSATASTATQPKPLEWLNRLRANPRIPLIVAGSAAVAIVVAMVLWAKTPDYRTLFSNLSDQDGGAIVAQLTQMNIPYRFANGSGAIEVPADKVHELRLRLAQQGLPKGGAVGFELLDQEKFGISQFSEQVNYQRALEGELARTIETLGPVKSARVHLAMPKPSLFVREQKSPSASVTVTLEPGRALDEGQISAVVHLVSSAVAGLPPGNVTLVDQSGHLLTQSNTSGRDLNDAQLKFANDVESRIQRRIEAILSPIVGNGNVHAQVTAQLDFANKEQTEEHYSPNGDASKATLRSRQLNISEQVGAGYPGGVPGALSNQPAPPNEAPIATPPTNQQNAQNTPQTSTSTNSNSAGPRSTQRNETSNYEVDRTIRHTKMNVGDIERLSVAVVVNYKTLADGKPLPLTADQMKQIEDLTREAMGFSDKRGDTLNVVNSPFSAVDNTGGELPFWQQQSFIDQLLAAGRWLLVLVVAWILWRKAVRPQLTRRVEEAKAAQEQAQVRQETEEAVEVRLSKDEQLQQRRANQRLGAEVMSQRIREMSDNDPRVVALVIRQWMSNDHE
notes: FliF, Salmonella enterica, transmembrane protein that forms the MS ring; also called MS ring; source: Salmonella SJW1368, pTrc99A-based plasmid, in DDM-solubilised membranes
B8: FliG-His (natural protein)
chain: MSNLSGTDKSVILLMTIGEDRAAEVFKHLSTREVQALSTAMANVRQISNKQLTDVLSEFEQEAEQFAALNINANEYLRSVLVKALGEERASSLLEDILETRDTTSGIETLNFMEPQSAADLIRDEHPQIIATILVHLKRSQAADILALFDERLRHDVMLRIATFGGVQPAALAELTEVLNGLLDGQNLKRSKMGGVRTAAEIINLMKTQQEEAVITAVREFDGELAQKIIDEMFLFENLVDVDDRSIQRLLQEVDSESLLIALKGAEPPLREKFLRNMSQRAADILRDDLANRGPVRLSQVENEQKAILLIVRRLAETGEMVIGSGEDTYV
notes: FliG, Salmonella enterica, C ring protein; also called His-FliG; source: Salmonella SJW1368, pTrc99A-based plasmid, in DDM-solubilised membranes; not shown: His tag, C-terminal, kept

Tests used:
[1] = molecular target: the molecule itself; assay: SEC; Ni-purified His-FliP or FliO/His-FliP complexes (wild type and mutants) on Superdex 200 10/300; 20 mM Tris-HCl pH 8.0, 300 mM NaCl, 2 mM EDTA, 5% glycerol, 0.1% DDM
[2] = molecular target: T1, His-St-FliP (Salmonella FliP with a hexahistidine tag inserted between Gln-22 and Leu-23) (Salmonella enterica, UniProt P54700 22-245); assay: pull-down; copurification from Salmonella SJW1368 co-expressing His-FliP with other export gate proteins; membranes solubilised with 1% DDM; Ni affinity, then anti-FLAG M2 affinity (eluted with FLAG peptide), then SEC on Superdex 200 10/300; SDS-PAGE with CBB; conditions: partners not purified
T1 construct: FliP, Salmonella enterica, 25-kDa transmembrane protein; mature form studied; the signal peptide (Met-1 to Gln-22) is cleaved during membrane insertion; tag LHHHHHH inserted between Gln-22 and Leu-23; Hexameric ring in SEC peak 2; also called His-FliP; FliP6 ring; source: Salmonella SJW1368, membranes solubilised with 1% DDM or 1% LMNG; purified (Ni-NTA, SEC); not shown: His6 (LHHHHHH), internal …
T1 sequence: B1 chain with A116F

[3] = molecular target: the molecule itself; assay: crystal structure; Tm-FliPP, 2.4 Å, SAD phasing with a Se-Met derivative; 2 tetramers in the asymmetric unit
[4] = molecular target: T2, FlhA (Salmonella enterica, UniProt P40729 1-692); assay: SEC; Ni-purified FlhA/FliF/FliG-His complex on Superdex 200 10/300 (DDM); main peak examined by negative-stain EM; conditions: both partners purified
T2 construct: FlhA, Salmonella enterica, transmembrane export gate protein; source: Salmonella SJW1368, pTrc99A-based plasmid, in DDM- or LMNG-solubilised membranes; co-purified
T2 sequence: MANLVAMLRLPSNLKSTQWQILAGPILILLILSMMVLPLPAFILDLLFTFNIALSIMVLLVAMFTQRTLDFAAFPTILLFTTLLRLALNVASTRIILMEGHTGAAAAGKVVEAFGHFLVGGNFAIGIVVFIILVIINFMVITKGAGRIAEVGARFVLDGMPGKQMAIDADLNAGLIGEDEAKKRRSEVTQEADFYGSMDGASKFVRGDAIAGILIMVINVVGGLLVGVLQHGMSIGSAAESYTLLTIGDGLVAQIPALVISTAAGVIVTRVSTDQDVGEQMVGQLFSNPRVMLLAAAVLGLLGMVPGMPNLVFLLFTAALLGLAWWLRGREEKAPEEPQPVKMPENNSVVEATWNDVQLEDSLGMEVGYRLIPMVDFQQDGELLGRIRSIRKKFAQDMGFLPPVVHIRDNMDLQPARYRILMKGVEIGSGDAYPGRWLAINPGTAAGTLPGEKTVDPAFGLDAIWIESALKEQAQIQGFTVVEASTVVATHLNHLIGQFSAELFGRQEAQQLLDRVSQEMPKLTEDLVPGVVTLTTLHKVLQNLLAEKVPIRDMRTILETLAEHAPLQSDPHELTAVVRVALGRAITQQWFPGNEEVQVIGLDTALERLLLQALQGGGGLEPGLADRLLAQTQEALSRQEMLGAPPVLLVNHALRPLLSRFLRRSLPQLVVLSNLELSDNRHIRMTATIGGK

[5] = molecular target: the molecule itself; assay: negative-stain electron microscopy with 2D class averaging; purified SEC peak fractions, 1.0% uranyl acetate, 100 kV; autocorrelation analysis for the rotational symmetry of the FliP ring
[6] = molecular target: B7; assay: pull-down; Ni affinity copurification with FliG-His from SJW1368 co-expressing FlhA, FlhB, FliF, FliG-His, FliO, FliP, HA-FliQ and FliR-FLAG; membranes solubilised with 1% DDM; conditions: partners not purified

Binder: B1
- stoichiometry N [1]: 2

Binder: B2
- stoichiometry N [1]: 2

Binder: B3
- stoichiometry N [1]: 2

Binder: B4
- stoichiometry N [2]: ~2 copies of FlhB per 6 copies of FliP

Binder: B5
- stoichiometry N [3]: 4

Binder: B6
- stoichiometry N [2]: ~2 copies of FliR per 6 copies of FliP

Binder: B7
- binding result [4]: binds
- binding result [5]: binds

Binder: B8
- binding result [6]: binds
